B1: Nuclear receptor subfamily 4 group A member 2, residues 260 to 336; numbered along this chain, P43354 (parent)
chain: EGLCAVCGDNAACQHYGVRTCEGCKGFFKRTVQKNAKYVCLANKNCPVDKRRRNRCQYCRFQKCLAVGMVKEVVRTD
B2: Ankyrin repeat and SAM domain-containing protein 6, residues 774 to 836; numbered along this chain, Q68DC2 (parent)
chain: DEDELTGILKKLSLEKYQPIFEEQEVDMEAFLTLTDGDLKELGIKTDGSRQQILAAISELNAG

Variants of: B1
Assay: abundance fitness (aPCA) (normalised: wild type 0, dead -1); higher = more abundant; growth selection in yeast, the domain comes from the species named
Conditions: Homo sapiens

Abundance fitness: each site, then its substitutions
L3: V -0.054, F -0.026
A5: R -0.026, L 0.219
D9: W -0.058, G 0.05
C4: R -0.47
G2: V -0.191, S -0.075
C13: V 0.046, E 0.03, F 0.116, H 0.136, A 0.1, M 0.239, G 0.057, D -0.022, R -0.103, T 0.006, I -0.298, K 0.099, L 0.083, S 0.092
G8: D -0.459, L 0.457, M -0.019

Variants of: B2
Assay: as above
Conditions: Homo sapiens

Abundance fitness: each site, then its substitutions
A62: S -0.09, Q -0.121, V -0.117, C -0.017, P -0.294, N -0.07, H -0.074, L -0.178, F -0.345, M -0.2, I -0.325, R -0.048, K -0.25, T -0.161, D 0.031, W -0.475, G 0.011, E 0.035
A55: M -0.21, S 0.043, E 0.031, V -0.301, K 0.112, P -0.528, N 0.014, Y -0.128, R 0.108, F -0.256, T 0.063, C 0.046, I -0.203, W -0.386, L -0.159, Q -0.022, G 0.105
G63: S -0.069, V -0.135, T -0.105, D -0.278, I -0.161, C -0.111, F -0.532, E -0.2, H -0.216, K -0.166, A -0.007, P -0.052, R 0.073, W -0.464, N -0.266
E59: V -0.267, M -0.169, P -0.614, T -0.106, C -0.272, Y 0.02, H 0.047, D -0.078, W -0.35, I -0.505, Q -0.097, A 0, N -0.212, S -0.113, K 0.02
D47: R -0.149, C -0.128, K -0.126, F -0.14, T -0.029, G -0.158, S -0.114, I -0.058, L -0.089, M -0.138, A -0.061, Q -0.054, V -0.049, N -0.126, W -0.309, Y -0.114, E 0.056, H 0.042
K45: M 0.008, E 0.013, F -0.143, L -0.066, A -0.055, D 0.079, I -0.348, V -0.225, H -0.076, P -0.044, Y -0.233, C -0.191, N -0.079, T -0.02, G -0.114, R -0.027, Q -0.151
T46: C 0.016, D 0.118, V -0.138, W -0.521, Y -0.197, N -0.159, G -0.011, S 0.017, Q -0.201, H 0.151, P -0.048, K 0.061, L -0.116, I -0.019, M -0.039, E 0.084, F -0.361
L60: G -0.301, F -0.04, Y 0.048, S -0.466, M -0.054, I -0.073, P -0.636, N -0.286, V -0.03, W 0.031, A -0.147, D -0.359, K -0.508, R -0.108, C 0.033
G48: Y -0.321, L -0.042, W -0.424, S 0.007, M -0.113, A -0.047, E 0.107, T 0.149, K -0.131, D -0.016, Q -0.039, F -0.339
A56: P -0.377, M -0.227, E 0.004, G 0.009, I -0.486, T -0.113, K -0.202, C 0.007, Y -0.109, L -0.17, W -0.708, F -0.246, N -0.385, D -0.183, V -0.133, H -0.147, S -0.157
I44: W -0.654, Y -0.766
Q51: W -0.724, R -0.092, C -0.379, E -0.128, T -0.163, N -0.044, A -0.084, Y -0.483, G -0.216, M -0.215, L -0.252, P -0.54, V -0.233, D -0.076, S -0.082
I57: K -0.349, Q -0.116, T -0.221, G -0.37, E -0.414, W -0.675, S -0.282, A -0.248, L -0.257, N -0.437, V -0.206, F -0.675, M -0.539, H -0.254, Y -0.696, C -0.277
R50: W -0.706, C -0.363, P -0.649, F -1, E -0.526, T -0.71, Y -0.834, A -0.494, H -0.527, Q -0.621, M -0.722, S -0.524, V -0.492, K -0.582, L -0.623, G -0.677, I -0.292, N -0.653
Q52: M -0.302, C -0.12, L -0.132, N -0.193, T -0.2, A -0.04, K -0.095, P -0.715, H -0.155, G -0.279, S -0.105, I -0.211, D 0.112, F -0.667, E 0.079, Y -0.574, W -0.805
N61: C -0.314, K 0.071, R 0.007, P -0.461, M -0.333, Q -0.127, D -0.297, L -0.299, G -0.186, Y -0.345, I -0.449, H -0.007, S -0.173, T -0.001, W -0.531, A -0.148
S49: W -0.391, F -0.249, G -0.055, H 0.009, T -0.054, L -0.191, V 0.062, P -0.208, C 0.096, Q -0.03, K -0.186, M -0.068, Y -0.242, E 0.181, R -0.192, D 0.157, N 0.003
I53: D -0.33, F -0.432, Q -0.686, N -0.451, H -0.481, W -0.904, R -0.559, L -0.002, E -0.319, M -0.062, T -0.345, V -0.104, P -0.44, C -0.404, S -0.44, A -0.331
S58: M -0.205, Y -0.466, A 0.045, G 0.034, R 0.022, I -0.533, N 0.118, T -0.064, F -0.434, H -0.114, Q -0.198, K 0.157
L54: I -0.133, T -0.312, M -0.137, R -0.337, C -0.075, Q -0.273, D -0.59, K -0.245, W -0.813, H -0.439, E -0.24, F -0.757, V -0.252, A -0.359, G -0.433, Y -0.634, S -0.234, P -0.311
